Assay: soluble on expression in E. coli; label from the status in PepcDB or PDB records

Sequence	soluble on expression in E. coli
DVPLTPSQFAKAKSENFDKKVILSNLNKPHALLWGPDNQIWLTERATGKILRVNPESGSVKTVFQVPEIVNDADGQNGLLGFAFHPDFKNNPYIYISGTFKNPKSTDKELPNQTIIRRYTYNKSTDTLEKPVDLLAGLPSSKDHQSGRLVIGPDQKIYYTIGDQGRNQLAYLFLPNQAQHTPTQQELNGKDYHTYMGKVLRLNLDGSIPKDNPSFNGVVSHIYTLGHRNPQGLAFTPNGKLLQSEQGPNSDDEINLIVKGGNYGWPNVAGYKDDSGYAYANYSAAANKSIKDLAQNGVKVAAGVPVTKESEWTGKNFVPPLKTLYTVQDTYNYNDPTCGEMTYICWPTVAPSSAYVYKGGKKAITGWENTLLVPSLKRGVIFRIKLDPTYSTTYDDAVPMFKSNNRYRDVIASPDGNVLYVLTDTAGNVQKDDGSVTNTLENPGSLIKFTYKAK	soluble
MAFSGSQAPYLSPAVPFSGTIQGGLQDGLQITVNGTVLSSSGTRFAVNFQTGFSGNDIAFHFNPRFEDGGYVVCNTRQNGSWGPEERKTHMPFQKGMPFDLCFLVQSSDFKVMVNGILFVQYFHRVPFHRVDTISVNGSVQLSYISFQNPRTVPVQPAFSTVPFSQPVCFPPRPRGRRQKPPGVWPANPAPITQTVIHTVQSAPGQMFSTPAIPPMMYPHPAYPMPFITTILGGLYPSKSILLSGTVLPSAQRFHINLCSGNHIAFHLNPRFDENAVVRNTQIDNSWGSEERSLPRKMPFVRGQSFSVWILCEAHCLKVAVDGQHLFEYYHRLRNLPTINRLEVGGDIQLTHVQT	soluble
MGHHHHHHSHMVTHSKFPAAGMSRPLDTSLRLKTFSSKSEYQLVVNAVRKLQESGFYWSAVTGGEANLLLSAEPAGTFLIRDSSDQRHFFALSVKTQSGTKNLRIQCEGGSFSLQSDPRSTQPVPRFDCVLKLVYHYMPPPGAPSFPSPPTEPSSEVPEQPSAQPLPGSPPRRAYYIYSGGEKIPLVLSRPLSSNVATLQHLCRKTVNGHLDSYEKVTQLPGPIREFLDQYDAPL	not soluble
MGHHHHHHSHMAYEISKKVLHIVGKTNATYKLIEEGDKILLGLSGGKDSIMLACILARMQKHAPFKFDFKAVTVHYGLGEDLKWLSDLCQEQGIEHEIIYTQIAATINEKRREKSSFCSFCSRLRRGTLYSKALEEGYNKVAIAHHLDDAVESFFMNFTYNGSLRSMPPIYRAENGLLVIRPLIKVREASSIHFVTSQNIPVAPDCNCPAKQPTSDKPPIARLATKNFLKEMQNLHPRFFDSLENAFNNVQANSFSDAKYLDA	not soluble
MSLEVISLSEKKGFNFNIIKNDPLDGHKGTNIGSISLDNIAPVFIDVANKEAFIDIGGMHARAKVEKGVKWITDKAAVEGDEAKEYWLCWVTTERNEQGPYYAGLTACYLLVNKAIRRGYKSMPEHVNMMDKSMKHHIIIDQIGDENKAILKDFLMNHDEGMWKHSSDALHQAFNEGHHHHHH	soluble
RRMVALYDYDPRESSPNVDVEAELTFCTGDIITVFGEIDEDGFYYGELNGQKGLVPSNFLEEV	soluble
MAHHHHHHMGVKFIVEHMDDLEEWCILEYMHICEIVKDENIIFTKFKGNFKDISKSHEPKCYEKSIGDLKDEFGWNKICLLDMKAKDVLTCKDKNEIDFLLFGGILGNVPSNDRTSELRKFEFPISRNLGSVQMTTNTAVLVCHIILNDQVELENIPFVDNPDIVLKNNKESMMLPFRFVSKYYYTKCESDKNVPILPKNFKDYLIKLGDQQYNDLDSFF	soluble
MPISSSSARRAEPAPRPLAEFHPVVRQWFERHFAAPTPAQVEAWPAIREGLSTLVAAPTGSGKTLTAFLAAIDALVVEGLAAGGELADATQVVYVSPLKALSNDIRINLEQPLAGIREELARLGLPDVDIRSAVRTGDTPQVERGAMRKRPPHILVTTPESLYILLGSESGRQMLAGVRSVIVDEIHALAGSKRGSHLALSLERLQALCPRPLLRIGLSATQKPIEKVARFLVGASGNPRDPACRIVDVGYTRPRDLGIEVPPVALEAVMSNDTWELVYDRLAHLAGEHRTTLVFVNTRRMAERVTRFLAERLGSRQVAAHHGSLAKELRLDAEQRLKAGQLKVLVATASLELGIDIGDVELVCQLSSPRSIAAFLQRVGRSGHSVGGTPKGRLFPTSRDDLVECAALLDSVRRGELDSLVLPRQPLDVLAQQIVAEVACQEWREDDLYRLVIRAEPYAGLERERFDEVLRMLAEGYHSRLGVRGAYLHRDALNGLLRGRRGARLTALTSGGTIPDTGDYSVLLEPQGLLVGTVNEDFAVESLAGDVFQLGNTSYRIIRIEPGRVRVEDAQGQPPNIPFWLGEAPGRSDELSASVARLRDTLDELLGEGQALPEGRRLEPAIAWLGATLGLDDGAARQIVEYLARARQALGGLPGSRRLVLERFFDESGGMQLIIHSPHGSRLNRAWGLALRKRFCRSFNFELQAAATEDAIILSLSTSHSFPLDEVWRYLHSASAEHLLVQAVLDAPLFGVRWRWNLTTSLGLPRYAGGRKVPPQLLRMKSEDLLASVFPDQVACLENIVGEREVPDHPLVAQTLDDCLHEAMDCEGWLALLRDMESGAVDLLARDLPAPSALAAEILTARPYAYLDDAPLEERRTQAVQNRRWSDPESADDLGALDLEAIEAVRGEAWPEASNADEMHEALNSLGFLTSGEAEANPGWGEWLAQLSEQRRAGRLDCAGSTLWLAAERLPAMRLVHPAAKVPDAFQAPRGYPPPDSAEAATVELTRARLGGFGPRTAGQLAADLGIGLADQQYALAALEREGYVLRGRFSPGATEEEWCERHLLARIHRYTVKRLRREIEPVERADFMRFLFDWQRLAPGTRGRGAESLATVVEQLEGFQAAAAAWESELLAARVADYASHWLDQLCRSGRIVWARLAGRSKAAGGPLRSAPIVLLPRRELGLWSVLQRDAPEPELSPRAARVLEVLREQGASFFDELSQDAHLLRSELENALGELVSVGRVNADSFAGLRTLLMPADKRSRQERRSRGLPGGMQDAGRWAPLRRAKAEEAGQRLPAEVLEHVARTLLRRYGVVAWRLLEREADWLPPWRELLRVYHRLEARGEIRGGRFIAGLAGEQFALAEAVGLLREVRKRPPDGAMLVVSAVDPLNLVGGLLPGERVPAVTGNRLLYRDGAPLAALVAGKVRMLAEVDGETAQQIRALLI	not soluble
MPETTYKYEDNEVKKKKTIFNENGYIIEELHYDKNRKEPYSYKKRYNDKGLLVESHEHTYTYEYDKNGNLVQIKRPKNSAYGGLERTTYNKAGKIIRTQTFTQNQYDKAGVKITDDSNYLKDKNGELYQSLTDYSYIYNKDGKLQEIRDNVFSSGTIKYSYEYEDGLYVKTAELVTQKFVTYYDKAGNEVKYKWITYSLGPDKPRTQLHLVFKENKRDKYGNLIYQVANRIEELDPEKKGTDVGIYEKKIIEYEYYELEHHHHHH	not soluble
MGSDKIHHHHHHMTVNSIKLLLLPALLLLVSACSSPEPIISLSGSTMGTTYHIKVVNSDRLPEAQLLQAEIDMALEVVNDQMSTYRSDSELSKFNQLQVQQSVKVSADTIKVIEEGMRLYQETDGALDITLGPVVNLWGFGPDKRPTTIPTQAQIDNAKAKMGIKELSIKGLTLTKHNADLYVDLSSIAKGFGVDKIAAILDKYHVSGYLVEIGGELNVKGTKDDNTPWRVAVEQPTTEGQAVQQVIEPGTMSLATSGDYRNFYQENGERFSHLIDPRNGYPIKHQLASATVLHSSCMTADGYATAMMVLGTEASLALAKEKNLAIMLIEKQEQGYQVYYSDAFKSYVK	not soluble
MGSDKIHHHHHHMSHLPHLIAKLENHAEWVKRLVLVGQKSWHTPLQKGGWSPAEVIHHFHRWDDFARNYRFIPFLAGRATFTAGAHAKFNEHSEREVRDGLGKEAIIVQCLKSRYALIETVEKLREEAWEQTLTIGDHDLSIHTYLQGVIEHDRHHREQIEQFFSLEQQGKLPMVNITERCGEELPMNLLLLADPEQAMIERYLSGGLGFLAEVEGTPVGVIVLKDKGHGLFEVMNIAVAEQEQGKGYGKLLLLHGIHVALKRGADRIEIGTGNSSIGQLALYQRCGFSITAVDKDFFTKHYHEPIVEQGIRCEHMIRLAQDLK	not soluble
MSDANPVFADYFKSWYGTYKIPGKSRTTVVRYETIYKKLNAYYGKAKLAKVTRKSYQIFMNEYGKKHAKDTVYKTNGSIRSCVRDGVADGIIQKDFTQKINLTWNLEHHHHHH	not soluble
MKPFCTVMANGEDITRTLMDYVLSIEITDEAEDKSDRITIELDDRARECDNGFLDIPLIGTIISVTLGYEGGKNRDMGAYLIDEISVSSPPQSLSVTGRAASMNTSYRTPKSQSYHQQTLGNIIQEIAERNGYTPKVDPALAKIVVRHIDQTSESDMAFATRLAEDYDAVAKPVDGKLVLAKRGEGKAITGETLPVVVIHEKLCSSWDFKYSARDEAGAANGLATEAGDDQKAAADAREPEEVEEGEDVIHMDESDAPNLPKAETEAKTPENQEQDEEKKGGVLASYHDIRTGEKKEVKVGKAPFHELKYTYHNQSEAVAAIAAYRNKSSRGKSSFSCDIGGDPFVQAEAKLVQEPPFRPYIPAEWRIKSVKHKLDKTGGYTTKIDCELFDETQEDAAGNVANTTPDKDDTLDPNAPPNACDEGEGVIHMDEEDR	not soluble
MGSSHHHHHHSSGLVPRGSHMASMTGGQQGRDPFESYNPEFFLYDIFLKFCLKYIDGEICHDLFLLLGKYNILPYDTSNDSIYACTNIKHLDFINPFGVAAGFDKNGVCIDSILKLGFSFIEIGTITPRGQTGNAKPRIFRDVESRSIINSCGFNNMGCDKVTENLILFRKRQEEDKLLSKHIVGVSIGKNKDTVNIVDDLKYCINKIGRYADYIAINVSSPNTPGLRDNQEAGKLKNIILSVKEEIDNLEKNNIMNDEFLWFNTTKKKPLVFVKLAPDLNQEQKKEIADVLLETNIDGMIISNTTTQINDIKSFENKKGGVSGAKLKDISTKFICEMYNYTNKQIPIIASGGIFSGLDALEKIEAGASVCQLYSCLVFNGMKSAVQIKRELNHLLYQRGYYNLKEAIGRKHSKS	soluble
MSCRFYQHKFPEVEDVVMVNVRSIQEMGAYVSLLEYNNIEGMIHLSELSRRRIRSINKLIRIGRNECVKVIRVDKEKGYIDLSKRRVSPEEAIKCEDKFTKSKTVYSILRHVAEVLEYTKDEQLESLFQRTAWVFDDKYKRPGYGAYDAFKHAVSDPSILDSLDLNEDEREVLINNINRRLTPQAVKIRADIEVACYGYEGIDAVKEALRAGLNCSTENMPIKINLIAPPRYVMTTTTLERTEGLSVLSQAMAVIKEKIEEKRGVFNVQMEPKVVTDTDETELARQMERLERENAEVDGDLEHHHHHH	soluble
MMRPDAKVEKVYLYPKPVDFRKSIDGLAALVELDIKVAVFDPVLFVFLNRHRNRVKILYWERNGFCLWLKRLESERFKTSPDETDEAIVLTVQELNWLLDGFDLWRNRPHKVLTPRFVA	not soluble
MEKKKLTTAAGAPVVDNNNVITAGPRGPMLLQDVWFLEKLAHFDREVIPERRMFAKGSGAFGTFTVTHDITKYTRAKIFSEVGKKTEMFARFSTVAGERGAADAERDIRGFALKFYTEEGNWDMVGNNTPVFYLRDPLKFPDLNHIVKRDPRTNMRNMAYKWDFFSHLPESLHQLTIDMSDRGLPLSYRFVHGFGSHTYSFINKDNERFWVKFHFRCQQGIKNLMDDEAEALVGKDRESSQRDLFEAIERGDYPRWKLQIQIMPEKEASTVPYNPFDLTKVWPHADYPLMDVGYFELNRNPDNYFSDVEQAAFSPANIVPGISFSPDKMLQGRLFSYGDAHRYRLGVNHHQIPVNAPKCPFHNYHRDGAMRVDGNSGNGITYEPNSGGVFQEQPDFKEPPLSIEGAADHWNHREDEDYFSQPRALYELLSDDEHQRMFARIAGELSQASKETQQRQIDLFTKVHPEYGAGVEKAIKVLEGKDAK	soluble
MDSNEIIKRVRERVYREVKKKYTRDDLDTRIQDVLYYRSETYMKLVSFANGKRIKKLADPRKFEKFMDTKGVKIVAEVLDGLNNQPKMQAMEYEQKVLTKVRQWYQKKNHPELVDLEEEAFEQLVEKNIIYKKMKKRLYEEQDNQGFVYSDNFDMQLIRDSCDIEEALYLDITLGDY	not soluble
